Reference: PMC8786784
“And” between values parts separate entries of the source, which are not always exact repeats. Equal values may be shown once.

Target: amyloid-β (Aβ) peptide (human (endogenous in brain tissue)) (UniProt P05067)
Test: 2D-PAGE immunoblot; Aβ immunoprecipitated (4G8 and 6E10) from tris- and FA-soluble fractions of human frontal cortex, eluted in rehydration buffer (8.3 M urea, 0.5% CHAPS, 20 mM DTT), IEF pH 3-10, 4-12% Bis-Tris gel, blot with 6E10; oligomer size assigned from the band's mass

stoichiometry N: 5 and 6
Substance: amyloid-β (Aβ) peptide (from UniProt P05067 672-713) (peptide; other documents disagree on this pair)
